Measured values published in PMC6553639 (Science signaling, 2018).
Where a chain is given by its changes, count along the chain named. No end group written: not given here. *: point of attachment. FITC = O=C1OC2(c3ccc(O)cc3Oc3cc(O)ccc32)c2ccc(NC(=S)*)cc21

Assays:
TRIB1(84–372) [1] = target: T1, TRIB1(84–372) (human, UniProt Q96RU8 84-372); experiment: ITC
T1 sequence (looked up): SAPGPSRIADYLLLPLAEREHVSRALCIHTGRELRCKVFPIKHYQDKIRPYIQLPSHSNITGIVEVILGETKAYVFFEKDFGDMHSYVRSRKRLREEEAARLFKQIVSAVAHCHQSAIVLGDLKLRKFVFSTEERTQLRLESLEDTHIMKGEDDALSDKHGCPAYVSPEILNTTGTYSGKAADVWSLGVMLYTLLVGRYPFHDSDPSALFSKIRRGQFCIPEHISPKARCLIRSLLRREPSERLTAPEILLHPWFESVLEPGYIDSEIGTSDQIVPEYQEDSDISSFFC

[2] = target: COP1 WD40 domain (376–731) (UniProt Q8NHY2 376-731); experiment: fluorescence polarisation
TRIB1(84–372) [3] = target: T1, TRIB1(84–372); experiment: differential scanning fluorimetry
[4] = target: T2, GST-TRIB1(84–372) wild type (human, UniProt Q96RU8 84-372); experiment: pull-down
T2 sequence (looked up): T1 sequence (looked up)

GST-TRIB1(84–372) S240W = target: T3, GST-TRIB1(84–372) S240W (human, UniProt Q96RU8 84-372, S240W); experiment: pull-down
T3 sequence (looked up): T1 sequence (looked up) with S157W

Sequence of COP1 WD40 domain (376–731) (Q8NHY2 376-731): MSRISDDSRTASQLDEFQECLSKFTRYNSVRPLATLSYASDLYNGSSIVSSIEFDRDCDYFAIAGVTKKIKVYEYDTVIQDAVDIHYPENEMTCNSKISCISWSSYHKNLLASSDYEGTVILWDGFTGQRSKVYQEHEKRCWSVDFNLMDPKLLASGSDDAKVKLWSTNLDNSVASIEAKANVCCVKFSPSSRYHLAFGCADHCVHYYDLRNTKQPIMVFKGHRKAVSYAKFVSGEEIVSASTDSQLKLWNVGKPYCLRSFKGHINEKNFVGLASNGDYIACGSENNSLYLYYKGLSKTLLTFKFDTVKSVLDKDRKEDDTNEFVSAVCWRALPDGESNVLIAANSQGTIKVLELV

Does PAMYDDESAIDFSAYIDSMAAVP (peptide, UniProt P49716 50-72, looked up) [C/EBPδ(50–72) fused to MBP] bind (TRIB1(84–372) [1])?
Result: binds

Does SEIGTSDQIVPEYQEDSDI (peptide, UniProt Q96RU8 349-367, looked up) [TRIB1 peptide (residues 349 to 367)] bind [2]?
Result: binds

Does GGICEHETSIDISAYIDPAAFND (peptide, UniProt P49715 53-75, looked up) [C/EBPα degron peptide (53 to 75)] bind (TRIB1(84–372) [3])?
Result: binds

Does {FITC}-SEIGTSDQIVPEYQEDSDI (peptide, UniProt Q96RU8 349-367, looked up) [FITC-TRIB1(349–367)] bind [2]?
Result: binds

Does GGICEHETSIDISAYIDPAAFND (peptide, UniProt P49715 53-75, looked up) [His6MBP-C/EBPα(53–75)] bind [4]?
Result: binds

Does GGICEHETSIDISAYIDPAAFND (peptide, UniProt P49715 53-75, looked up) [His6MBP-C/EBPα(53–75)] bind (GST-TRIB1(84–372) S240W)?
Result: binds

Does GGICEHETSIDISAYIDPAAFND (peptide, UniProt P49715 53-75, looked up) [His6MBP-C/EBPα(53–75)] bind (TRIB1(84–372) [1])?
Result: binds

Does GDMCEHEASIDLSAYIESGEEQL (peptide, UniProt Q15744 31-53, looked up) [C/EBPε(31–53) fused to MBP] bind (TRIB1(84–372) [1])?
Result: binds
